First the molecules themselves.
B1: Azoarcus group I ribozyme (parent)
chain: GUGCCUUGCGCCGGGAAACCACGCAAGGGAUGGUGUCAAAUUCGGCGAAACCUAAGCGCCCGCCCGGGCGUAUGGCAACGCCGAGCCAAGCUUCGGCGCCUGCGCCGAUGAAGGUGUAGAGACUAGACGGCACCCACCUAAGGCAAACGCUAUGGUGAAGGCAUAGUCCAGGGAGUGGCGAAAGUCACACAAACCGG

In the data set the parent is B1. In words: reverse-splicing fitness (ratio to wild type); higher = more active; in vitro selection; Mg2+ level not given. The procedure, abridged:
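An in vitro group I ribozyme library with randomized positions was T7-transcribed and gel-purified. In triplicate, 10 pmol RNA in EPPS pH 7.5 was reacted with 50 pmoles of a 30-nt RNA substrate for 1 h at 37 °C across several added MgCl2 levels (1–48 mM), then stopped with EDTA. Products were reverse transcribed from a substrate-complementary primer, PCR-amplified and sequenced (HiSeq 4000). Fitness is a variant's read proportion after selection over that before, normalised to wild type.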
As to C82G A120C A145U U176C, the reverse-splicing fitness was found to be 0.0999.
The value for C82G A120C A145U U176A was 0.0752; that for C82G A111U C150U C169U was 0.0118; that for C82G A111U C150U C169G was 0.00914.
For the variant C82G A111U C150U C169A, the reverse-splicing fitness amounted to 0.0106.
Take C82G A111U C150U C169G U176C: the reverse-splicing fitness came out at 0.0169.
For the variant C82G A111U C150U C169G U176G, the reverse-splicing fitness came to 0.00689.
For the variant C82G A111U C150U C169G U176A, the reverse-splicing fitness was 0.0149.
With C82G A120C A145C C169U U176C, the reverse-splicing fitness came out at 0.0142.
Take C82G A120C A145C C169U U176G: the reverse-splicing fitness turned out to be 0.00352.
For C82G A120C A145C C169U U176A the value was 0.0152; for C82G A120C A145U C150A, 0.0209.
The value for C82G A120C A145U C150U was 0.11; that for C82G A120C A145U C150G was 0.0201.
For C82G A120C A145U C150G U176C the value was 0.0164; for C82G A120C A145U C150G U176A, 0.00942.
Turning to C82G A120C A145U C150G U176G, the reverse-splicing fitness amounted to 0.00444.
For C82G A120C A145C C150G the value was 0.0227.
For C82G A120C A145C C150A the value was 0.0129.
In the case of C82G A120C A145C C150U, the reverse-splicing fitness turned out to be 0.0403.
As for C82G A120C A145G C150U C169A, the reverse-splicing fitness worked out at 0.0102.
As to C82G A120C A145G C150U C169U, the reverse-splicing fitness was determined as 0.0243.
As to C82G A120C A145G C150U C169G, the reverse-splicing fitness was determined as 0.00909.
With C82G A120C A145C C150U C169G, the reverse-splicing fitness was 0.00749.
Regarding C82G A120C A145C C150U C169A, the reverse-splicing fitness stood at 0.008.
For C82G A120C A145C C150U C169U, the reverse-splicing fitness is 0.0122.
With C82G A111U C150A C169G U176G, the reverse-splicing fitness was 0.0075.
In the case of C82G A111U C150A C169G U176C, the reverse-splicing fitness worked out at 0.0229.
With C82G A111U C150A C169G U176A, the reverse-splicing fitness came out at 0.021.
For C82G A120C A145U C150U C169U U176G the value was 0.00456; for C82G A120C A145U C150U C169U U176C, 0.0148.
With C82G A120C A145U C150U C169U U176A, the reverse-splicing fitness worked out at 0.0152.
Take C82G A120C C150A C169G U176A: the reverse-splicing fitness stood at 0.0187.
Regarding C82G A120C C150A C169G U176G, the reverse-splicing fitness was determined as 0.00501.
As for C82G A120C C150A C169G U176C, the reverse-splicing fitness stood at 0.0222.
Consider C82G A120C A145G C169A U176G, for which the reverse-splicing fitness was 0.00477.
For C82G A120C A145G C169A U176C the value was 0.0247.
On to C82G A120C A145G C169A U176A, for which the reverse-splicing fitness was 0.0209.
Take C82G A120C A145C C150U C169G U176C: the reverse-splicing fitness amounted to 0.013.
As for C82G A120C A145C C150U C169G U176A, the reverse-splicing fitness was 0.0259.
C82G A120C A145C C150U C169G U176G: the reverse-splicing fitness turned out to be 0.00532.
For C82G A120C A145C C150A C169A U176C the value was 0.00645.
Consider C82G A120C A145C C150A C169A U176A, for which the reverse-splicing fitness turned out to be 0.0154.
As to C82G A120C A145C C150A C169A U176G, the reverse-splicing fitness is 0.00522.
Take C82G A120C A145G C150A C169U U176C: the reverse-splicing fitness came out at 0.0165.
For C82G A120C A145G C150A C169U U176A, the reverse-splicing fitness was 0.0145.
For the variant C82G A120C A145G C150A C169U U176G, the reverse-splicing fitness amounted to 0.00589.
C82G A120C A145C C150U U176G: the reverse-splicing fitness was 0.00925.
The value for C82G A120C A145C C150U U176C was 0.0273.
Take C82G A120C A145C C150U U176A: the reverse-splicing fitness came out at 0.0221.
Regarding C82G A120C C150G C169U U176C, the reverse-splicing fitness came to 0.0109.
For C82G A120C C150G C169U U176G the value was 0.00535.
For C82G A120C C150G C169U U176A the value was 0.00577; for C82G A120C A145U C169A U176C, 0.00989.
Turning to C82G A120C A145U C169A U176A, the reverse-splicing fitness stood at 0.0121.
Regarding C82G A120C A145U C169A U176G, the reverse-splicing fitness amounted to 0.00379.
For C82G A120C A145U C150U C169G the value was 0.00838; for C82G A120C A145U C150U C169A, 0.00933; for C82G A120C A145U C150U C169U, 0.0172.
For the variant C82G A111U C150U C169U U176A, the reverse-splicing fitness came out at 0.014.
Regarding C82G A111U C150U C169U U176G, the reverse-splicing fitness worked out at 0.00694.
Consider C82G A111U C150U C169U U176C, for which the reverse-splicing fitness worked out at 0.013.
For C82G A111U A145U C150U C169G U176G the value was 0.00659.
For C82G A120C A145C C150G C169A U176G the value was 0.00496.
In the case of C82G A120C A145C C150G C169A U176C, the reverse-splicing fitness came out at 0.00752.
As for C82G A120C A145C C150G C169A U176A, the reverse-splicing fitness is 0.0101.
Take C82G A120C A145G C169G: the reverse-splicing fitness is 0.00863.
Consider C82G A120C A145G C169U, for which the reverse-splicing fitness was determined as 0.0256.
As to C82G A120C A145G C169A, the reverse-splicing fitness worked out at 0.0105.
In the case of C82G A120C A145U C150A C169U U176A, the reverse-splicing fitness is 0.0151.
The value for C82G A120C A145U C150A C169U U176C was 0.013; that for C82G A120C A145U C150A C169U U176G was 0.00492; that for C82G A120C A145C C169G U176A was 0.0262.
On to C82G A120C A145C C169G U176G, for which the reverse-splicing fitness was found to be 0.00428.
With C82G A120C A145C C169G U176C, the reverse-splicing fitness stood at 0.0161.
For the variant C82G A111U A145U C150U C169U U176A, the reverse-splicing fitness was 0.0142.
For C82G A111U A145U C150U C169U U176C, the reverse-splicing fitness is 0.0136.
For C82G A111U A145U C150U C169U U176G the value was 0.00609; for C82G A120C A145C C150A C169U U176G, 0.0044.
On to C82G A120C A145C C150A C169U U176A, for which the reverse-splicing fitness was 0.0134.
In the case of C82G A120C A145C C150A C169U U176C, the reverse-splicing fitness came out at 0.0101.
On to C82G A120C C150U C169U U176C, for which the reverse-splicing fitness is 0.0162.
Take C82G A120C C150U C169U U176A: the reverse-splicing fitness worked out at 0.0159.
For C82G A120C C150U C169U U176G, the reverse-splicing fitness amounted to 0.00634.

(Values after the RNAGym collection of RNA variant scans (doi:10.1093/molbev/msab373).)
